Assay results taken from the supplement of paper PMC10126150.
± gives the standard deviation of the averaged measurements.

System: ATP
Assay: switch fluorescence ratio, 500 uM ATP over buffer (Cy3 cluster intensity, sum of 5 cycles each) (fold (ratio)); higher = stronger signal-on switching upon ATP binding; sequences stand for … in TCGTCGGCAGCGTCAGATGTGTATAAGAGACAGTTTTTTTTTTTTTTTTTTTTTTTTT…TC
Conditions: aptamer strand: ATP DNA aptamer (quencher-CACCTGGGGGAGTATTGCGGAGGAAGG + anchor), 100 nM annealed; ATP concentration: 500 uM
Outline: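 Five buffer/ATP imaging cycles were run on Cy3-labelled switching-strand clusters on a modified Illumina MiSeq flow-cell, with NaOH stripping and re-annealing between cycles. In each cycle, clusters annealed to 100 nM quencher-labelled ATP aptamer were imaged in selection buffer, then after 15 min with 500 uM ATP at 22 °C. Per cluster, the fluorescence ratio is summed target-cycle over summed buffer-cycle Cy3 intensity, averaged per switch-domain sequence. Only clusters within 100-1000 RFU were kept.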
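Further: ATP exposure 15 min at 22 °C before imaging.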

With ACAAGGAGGT as the sequence, how does the switch fluorescence ratio read?
The switch fluorescence ratio was 0.983 ± 0.005.

How did the switch fluorescence ratio turn out when ACAAGGCAGA was run?
The switch fluorescence ratio was 1.04 ± 0.013.

ACAAGGGTC was tested. Which switch fluorescence ratio did it give?
Its switch fluorescence ratio is 0.964 ± 0.025.

How did the switch fluorescence ratio turn out when ACAAGGTGAC was run?
The switch fluorescence ratio was 1.082 ± 0.0021.

Which switch fluorescence ratio does the source give for ACAAGTAAGC here?
Its switch fluorescence ratio is 1.048 ± 0.0067.

How did the switch fluorescence ratio turn out when ACAATAACAC was run?
Its switch fluorescence ratio is 1.095 ± 0.0093.

ACAATATAGA was tested. Which switch fluorescence ratio did it give?
Its switch fluorescence ratio is 1.0126 ± 8.1e-07.

ACAATCGGCG was tested. Which switch fluorescence ratio did it give?
The switch fluorescence ratio was 1.02 ± 0.0072.

How did the switch fluorescence ratio turn out when ACAATGTCT was run?
The switch fluorescence ratio was 0.996 ± 0.014.

With ACAATGTGGT as the sequence, how does the switch fluorescence ratio read?
Its switch fluorescence ratio is 0.951 ± 0.018.

How did the switch fluorescence ratio turn out when ACAATTTATT was run?
Its switch fluorescence ratio is 1.02 ± 0.051.

With ACACAATTTT as the sequence, how does the switch fluorescence ratio read?
The switch fluorescence ratio was 1.01 ± 0.026.

For ACACACCAGG, which switch fluorescence ratio is on record?
Its switch fluorescence ratio is 2.98 ± 0.18.

For ACACAGCGGC, which switch fluorescence ratio is on record?
The switch fluorescence ratio was 1.16 ± 0.046.

With ACACAGGTAT as the sequence, how does the switch fluorescence ratio read?
Its switch fluorescence ratio is 1.12 ± 0.059.

How did the switch fluorescence ratio turn out when ACACATCATA was run?
The switch fluorescence ratio was 1.07 ± 0.032.

ACACATTGGA was tested. Which switch fluorescence ratio did it give?
Its switch fluorescence ratio is 1.03 ± 0.0023.

For ACACCCAAGT, which switch fluorescence ratio is on record?
The switch fluorescence ratio was 1.21 ± 0.14.

Which switch fluorescence ratio does the source give for ACACCTCCAA here?
The switch fluorescence ratio was 1.04 ± 0.027.

For ACACGAGGCT, which switch fluorescence ratio is on record?
The switch fluorescence ratio was 1.04 ± 0.029.

How did the switch fluorescence ratio turn out when ACACTCACCC was run?
Its switch fluorescence ratio is 1.57 ± 0.36.

ACACTCATGG was tested. Which switch fluorescence ratio did it give?
The switch fluorescence ratio was 1.03 ± 0.068.

With ACACTCATTG as the sequence, how does the switch fluorescence ratio read?
Its switch fluorescence ratio is 1.06 ± 0.074.

With ACACTTTTCG as the sequence, how does the switch fluorescence ratio read?
The switch fluorescence ratio was 1.01 ± 0.035.

How did the switch fluorescence ratio turn out when ACAGAATCGA was run?
The switch fluorescence ratio was 1.02 ± 0.032.

For ACAGAATCGG, which switch fluorescence ratio is on record?
Its switch fluorescence ratio is 1.03 ± 0.018.

For ACAGACAATG, which switch fluorescence ratio is on record?
Its switch fluorescence ratio is 1.02 ± 0.045.

For ACAGACAGGC, which switch fluorescence ratio is on record?
The switch fluorescence ratio was 1.05 ± 0.062.

How did the switch fluorescence ratio turn out when ACAGACTTTG was run?
The switch fluorescence ratio was 1.01 ± 0.062.

With ACAGAGGCAC as the sequence, how does the switch fluorescence ratio read?
The switch fluorescence ratio was 1.02 ± 0.062.

ACAGAGGGAG was tested. Which switch fluorescence ratio did it give?
The switch fluorescence ratio was 1.02 ± 0.011.

For ACAGATTTAG, which switch fluorescence ratio is on record?
Its switch fluorescence ratio is 0.972 ± 0.014.

For ACAGCAGGGG, which switch fluorescence ratio is on record?
The switch fluorescence ratio was 1.25 ± 0.17.

How did the switch fluorescence ratio turn out when ACAGCTAAAA was run?
Its switch fluorescence ratio is 1.02 ± 0.016.

How did the switch fluorescence ratio turn out when ACAGGAAAAA was run?
Its switch fluorescence ratio is 0.976 ± 0.084.

Which switch fluorescence ratio does the source give for ACAGGAAACG here?
Its switch fluorescence ratio is 1.042 ± 0.0014.

Which switch fluorescence ratio does the source give for ACAGGACAGC here?
The switch fluorescence ratio was 1.14 ± 0.049.

How did the switch fluorescence ratio turn out when ACAGGACGTT was run?
The switch fluorescence ratio was 1.11 ± 0.028.

For ACAGGAGCGT, which switch fluorescence ratio is on record?
The switch fluorescence ratio was 1.1017 ± 0.00065.

With ACAGGAGTTT as the sequence, how does the switch fluorescence ratio read?
The switch fluorescence ratio was 0.999 ± 0.01.

For ACAGGATCCG, which switch fluorescence ratio is on record?
Its switch fluorescence ratio is 1.01 ± 0.00021.

For ACAGGCCAGC, which switch fluorescence ratio is on record?
The switch fluorescence ratio was 1.01 ± 0.022.

With ACAGGCTCCG as the sequence, how does the switch fluorescence ratio read?
The switch fluorescence ratio was 1.05 ± 0.038.

Which switch fluorescence ratio does the source give for ACAGGGGAGT here?
Its switch fluorescence ratio is 1.03 ± 0.02.

For ACAGGGGGTG, which switch fluorescence ratio is on record?
Its switch fluorescence ratio is 1.07 ± 0.035.

ACAGGGGTGG was tested. Which switch fluorescence ratio did it give?
The switch fluorescence ratio was 1.02 ± 0.021.

With ACAGGTTAGA as the sequence, how does the switch fluorescence ratio read?
Its switch fluorescence ratio is 1.05 ± 0.014.

For ACAGTAGGAA, which switch fluorescence ratio is on record?
Its switch fluorescence ratio is 1.08 ± 0.035.

With ACAGTCGTCT as the sequence, how does the switch fluorescence ratio read?
The switch fluorescence ratio was 0.949 ± 0.042.

How did the switch fluorescence ratio turn out when ACAGTCTGCG was run?
The switch fluorescence ratio was 0.962 ± 0.037.

For ACAGTGCATT, which switch fluorescence ratio is on record?
The switch fluorescence ratio was 1.03 ± 0.025.

For ACAGTGTGTC, which switch fluorescence ratio is on record?
The switch fluorescence ratio was 0.994 ± 0.042.

For ACAGTTATTA, which switch fluorescence ratio is on record?
The switch fluorescence ratio was 1.03 ± 0.028.

For ACAGTTGGTT, which switch fluorescence ratio is on record?
Its switch fluorescence ratio is 0.99 ± 0.06.

Which switch fluorescence ratio does the source give for ACAGTTTTTT here?
The switch fluorescence ratio was 0.98861 ± 1.6e-05.

For ACATAAGTG, which switch fluorescence ratio is on record?
Its switch fluorescence ratio is 1.02 ± 0.019.

ACATAAGTGG was tested. Which switch fluorescence ratio did it give?
The switch fluorescence ratio was 1.01 ± 0.011.

For ACATAATGTG, which switch fluorescence ratio is on record?
The switch fluorescence ratio was 1.06 ± 0.013.

With ACATAGGGCT as the sequence, how does the switch fluorescence ratio read?
Its switch fluorescence ratio is 0.987 ± 0.04.

With ACATAGTGCT as the sequence, how does the switch fluorescence ratio read?
The switch fluorescence ratio was 1.004 ± 0.0077.

Which switch fluorescence ratio does the source give for ACATATATGA here?
The switch fluorescence ratio was 1.06 ± 0.031.

Which switch fluorescence ratio does the source give for ACATATGGGT here?
Its switch fluorescence ratio is 1.01 ± 0.039.

For ACATCAGAAT, which switch fluorescence ratio is on record?
The switch fluorescence ratio was 1.01 ± 0.028.

ACATCATACG was tested. Which switch fluorescence ratio did it give?
Its switch fluorescence ratio is 1.233 ± 0.01.

Which switch fluorescence ratio does the source give for ACATCCAACG here?
Its switch fluorescence ratio is 1.12 ± 0.028.

Which switch fluorescence ratio does the source give for ACATCCGGAC here?
Its switch fluorescence ratio is 1.343 ± 0.011.

ACATCCGTCG was tested. Which switch fluorescence ratio did it give?
Its switch fluorescence ratio is 1.06 ± 0.022.

For ACATCCTACT, which switch fluorescence ratio is on record?
The switch fluorescence ratio was 1.15 ± 0.041.

With ACATCGACTG as the sequence, how does the switch fluorescence ratio read?
The switch fluorescence ratio was 1.02 ± 0.048.

With ACATCGTGTT as the sequence, how does the switch fluorescence ratio read?
The switch fluorescence ratio was 0.977 ± 0.033.

For ACATCTCGAT, which switch fluorescence ratio is on record?
Its switch fluorescence ratio is 0.996 ± 0.015.

How did the switch fluorescence ratio turn out when ACATGAACCT was run?
Its switch fluorescence ratio is 2.14 ± 0.077.

For ACATGACGGT, which switch fluorescence ratio is on record?
The switch fluorescence ratio was 1.06 ± 0.027.

Which switch fluorescence ratio does the source give for ACATGCACGG here?
Its switch fluorescence ratio is 1.268 ± 0.0013.

How did the switch fluorescence ratio turn out when ACATGCGGTG was run?
Its switch fluorescence ratio is 1.002 ± 0.0033.

With ACATGGCTAA as the sequence, how does the switch fluorescence ratio read?
The switch fluorescence ratio was 1.08 ± 0.068.

With ACATGGGTGG as the sequence, how does the switch fluorescence ratio read?
The switch fluorescence ratio was 0.962 ± 0.051.

ACATGGTAGT was tested. Which switch fluorescence ratio did it give?
Its switch fluorescence ratio is 0.97 ± 0.041.

With ACATGGTTAG as the sequence, how does the switch fluorescence ratio read?
The switch fluorescence ratio was 0.987 ± 0.03.

For ACATGTCTGG, which switch fluorescence ratio is on record?
The switch fluorescence ratio was 1.001 ± 0.0016.

With ACATGTGCGT as the sequence, how does the switch fluorescence ratio read?
The switch fluorescence ratio was 1.004 ± 0.01.

With ACATTAGTAG as the sequence, how does the switch fluorescence ratio read?
Its switch fluorescence ratio is 1.02 ± 0.033.

ACATTAGTTA was tested. Which switch fluorescence ratio did it give?
Its switch fluorescence ratio is 1.05 ± 0.033.

ACATTATATG was tested. Which switch fluorescence ratio did it give?
The switch fluorescence ratio was 1.01 ± 0.043.

ACATTCGACC was tested. Which switch fluorescence ratio did it give?
Its switch fluorescence ratio is 1.11 ± 0.062.

How did the switch fluorescence ratio turn out when ACATTGGGAT was run?
The switch fluorescence ratio was 0.998 ± 0.022.

ACATTGTACG was tested. Which switch fluorescence ratio did it give?
The switch fluorescence ratio was 1.09 ± 0.019.

Which switch fluorescence ratio does the source give for ACATTTTTAG here?
Its switch fluorescence ratio is 1.01 ± 0.013.

With ACCAAAAATG as the sequence, how does the switch fluorescence ratio read?
The switch fluorescence ratio was 1.1 ± 0.13.

Which switch fluorescence ratio does the source give for ACCAACTCAG here?
The switch fluorescence ratio was 1.24 ± 0.037.

How did the switch fluorescence ratio turn out when ACCAAGTATC was run?
Its switch fluorescence ratio is 1.04 ± 0.036.

Which switch fluorescence ratio does the source give for ACCAAGTTCA here?
The switch fluorescence ratio was 1.02 ± 0.014.

How did the switch fluorescence ratio turn out when ACCAAGTTGG was run?
The switch fluorescence ratio was 0.993 ± 0.016.

For ACCAGCTTTC, which switch fluorescence ratio is on record?
The switch fluorescence ratio was 1.16 ± 0.015.

Which switch fluorescence ratio does the source give for ACCAGGACTA here?
The switch fluorescence ratio was 1.038 ± 0.0017.

ACCAGGGGGG was tested. Which switch fluorescence ratio did it give?
The switch fluorescence ratio was 1.07 ± 0.058.

With ACCAGGTGGT as the sequence, how does the switch fluorescence ratio read?
Its switch fluorescence ratio is 1.78 ± 1.1.

How did the switch fluorescence ratio turn out when ACCATAGAAT was run?
The switch fluorescence ratio was 1.009 ± 0.0094.

With ACCATATGGA as the sequence, how does the switch fluorescence ratio read?
Its switch fluorescence ratio is 1.02 ± 0.064.

For ACCATCAAGG, which switch fluorescence ratio is on record?
Its switch fluorescence ratio is 0.9815 ± 0.0016.
